Data from article PMC7547085, “Specific and direct modulation of the interaction between adhesion GPCR GPR56/ADGRG1 and tissue transglutaminase 2 using synthetic ligands” (Scientific Reports, 2020).

B1: mouse full-length GPR56 (GPR56 FL), wild type, on HEK293T cells [mouse] / mouse tissue transglutaminase 2 C-terminal D3D4 domains (mTG2 D3D4) [modified: biotin on the AVI-tag; biotin on the AVI-tag] [mouse] (parent)
chain 1: TGVAMRIRVGDSMSMGNDFDVFAHIGNDTSETRECRLLLCARTVSYNGVLGPECGTEDINLTLDPYSENSIPLRILYEKYSGCLTESNLIKVRGLLIEPAANSYLLAERDLYLENPEIKIRVLGEPKQNRKLVAEVSLKNPLSDPLYDCIFTVEGAGLTKEQKSVEVSDPVPAGDLVKARVDLFPTDIGLHKLVVNFQCDKLKSVKGYRNVIIGPA
chain 2: GSPREDFRFCGQRNQTQQSTLHYDQSSEPHIFVWNTEETLTIRAPFLAAPDIPRFFPEPRGLYHFCLYWSRHTGRLHLRYGKHDYLLSSQASRLLCFQKQEQSLKQGAPLIATSVSSWQIPQNTSLPGAPSFIFSFHNAPHKVSHNASVDMCDLKKELQQLSRYLQHPQKAAKRPTAAFISQQLQSLESKLTSVSFLGDTLSFEEDRVNATVWKLPPTAGLEDLHIHSQKEEEQSEVQAYSLLLPRAVFQQTRGRRRDDAKRLLVVDFSSQALFQDKNSSQVLGEKVLGIVVQNTKVTNLSDPVVLTFQHQPQPKNVTLQCVFWVEDPASSSTGSWSSAGCETVSRDTQTSCLCNHLTYFAVLMVSSTEVEATHKHYLTLLSYVGCVISALACVFTIAAYLCSRRKSRDYTIKVHMNLLSAVFLLDVSFLLSEPVALTGSEAACRTSAMFLHFSLLACLSWMGLEGYNLYRLVVEVFGTYVPGYLLKLSIVGWGFPVFLVTLVALVDVNNYGPIILAVRRTPERVTYPSMCWIRDSLVSYVTNLGLFSLVFLFNLAMLATMVVQILRLRPHSQNWPHVLTLLGLSLVLGLPWALVFFSFASGTFQLVILYLFSIITSFQGFLIFLWYWSMRFQAQGGPSPLKNNSDSAKLPISSGSTSSSRI

Variants of: B1
Test: flow cytometry on cells
Conditions: with mouse tissue transglutaminase 2 C-terminal D3D4 domains (mTG2 D3D4) [modified: biotin on the AVI-tag, 5 nM TG2 D3D4 (tetramerized), GPR56 FL constructs expressed on HEK293T cells, n = 3, parent: 1, read off a plot

| ratio to parent | Variant |
| --- | --- |
| 4.1 | chain 2 H64A Y68A S125A |
| 0.2 | chain 2 H64A Y68A R79D |
| 0.21 | chain 2 L62D |
| 0.33 | chain 2 L62D S125A |
| 6.6 | chain 2 H64A S125A |
| 8.7 | chain 2 S125A |
| 0.33 | chain 2 Y68A |
| 0.22 | chain 2 H64A Y68A |
| 0.64 | chain 2 H64A |
